Results: the DeepSol protein solubility set

Experiment: soluble on expression in E. coli; label from the status in PepcDB or PDB records

Soluble on expression in E. coli, not soluble:
MGSDKIHHHHHHMTVAKGSIHGIIGENGAGKSTLMSILYGFYQADSGEIKIGGQSTVIKDSQAAISSGIGMVHQHFMLVENFTVLENVMLGAEGGALLAKGTAAARASLKQLETDYGLDVDPDAVVEELPVGRQQRVEILKALYRGADILILDEPTGVLTPAEADHLFKILRVLRDQGKTVILITHKLREIMAITDTVSVMRRGEIVATRKTVETSVEELAELMVGRRVLLRVDKQPAQPRDVLLSVRNLTVKDSRGVIMVDDVSFDVREGEIVGIAGVAGNGQSELLEAITGIRKPMSGEILIAGKLVTGYDPARLRDLGLAHIPEDRHHMGLVLPFEESQNAILGYHRDERYGKGMFLDPKAIRAAAEVEIAKYDIRPPNPRLKTANFSGGNQQKIVVAREIERDPNVLIIGQPTRGVDIGAIEFIHRRIVETRDKGKALLLVSVELDEIRSLSDRILVMFAGKVVGEKTADADEQTLGLMMAGIAA, MGSDKIHHHHHHMTVKSSTSSLHDRSSTSTSLMPGFADPVFDAQAVFRASLLATAYPGRVVPVDRALASPRPFSSATAALCLTLMDFETLAWLDRQAASGEAVAWLRFHCGLPVTDDPMKARFAVVTDALTMPRLVEFHPGDVEYPDRSMTLIIQVPSFNEGPATTWTGPGIKTSARVSIGGLPFWYWSDWEMNRELYPRGIDVIFTNGNALVGLPRTIAVEA, MGSDKIHHHHHHMTVLHSVDFFPSGKAPVAIEPRLPQAAFPEHHHDFHEIVIVEHGTGIHVFNGQPYTISGGTVCFVRDHDRHLYEHTDNLCLTNVLWRSPDAFQFLAGLDQLLPQEQDGYYPSHWRVNQSVLQQVRQLVGLMERAGDGMDAPAVANREILFMQLLVLLRRSSLMEGATNNDAKLNQLMAWLEDHFAEEVCWEAVAEQFSLSLRTLHRQLKQHTGLTPQRYLNRLRLIKARHLLRHSDHSVTEIAYRCGFGDSNHFSTLFRREFNWSPRDIRQGRDAIIQ, MGSDKIHHHHHHMTVLHSVDFFPSGNASVAIEPRLPQADFPEHHHDFHEIVIVEHGTGIHVFNGQPYTITGGTVCFVRDHDRHLYEHTDNLCLTNVLYRSPDRFQFLAGLNQLLPQELDGQYPSHWRVNHSVLQQVRQLVAQMEQQEGENDLPSTASREILFMQLLLLLRKSSLQENLENSASRLNLLLAWLEDHFADEVNWDAVADQFSLSLRTLHRQLKQQTGLTPQRYLNRLRLMKARHLLRHSEASVTDIAYRCGFSDSNHFSTLFRREFNWSPRDIRQGRDGFLQ, MGSDKIHHHHHHMTVRDFHYYEPAEGHGLSHNPLNALVAPRPIGWISSRDAQGRVNLAPYSFFNAFNYDPPIIGFSSIAWKDSVQNASETREFTWNLVTRELGDQMNQTSSPLPHGEDEFQFAGLTAVAGRKVNVPRVGESRAAMECKVIDIVQFRNTAGEKVGGWLVLGEVVAVYIDKTLLKDGVYQTAEAYPIMRSGGLNDYVQVSPDNVFQIARLAGASSPSSHGKG, MGSDKIHHHHHHMTYTSLQSPADKDYLYDIRVAHLYGNLLNTYGDNGNVLMLKYVGEKLGIRMTFDIVSIGDDFDANKYDMVFFGGGQDYEQSIVAKDLPNKRSAIASFIQNNKVVLAICGGFQLLGQYYVQANGVRIDGIGVMGHYTLNQKDNRYIGDIKIHNDEFNETYYGFENHQGRTFLSDDEKPLGRVIYGNGNNKEDGSEGVHYKNVFGSYFHGPILSRNANLAYRLVTTALHNKYGIDIQLPRYEDILSLEVAEEYGDVKSKAEFEK, MGSDKIHHHHHHMVASKQGLDLFQASGEPYEIGYRLGELARPVFAGYMRQSRAWQAVRRWRGAPFVHKLREAAHAHFPALLVELDGMAAGLGWTAEDMFLWNCRGELIHNVPDGCTTLAAHVGDTRFIAHNEDGDPFLGERCALVEVRPAGKPGFVSFHYPGSLPGHTFAASRAGVVQAINNLRIRAPVAGVPRMILARAVLDAASLDEALHILRDTPAASGFHHTLGCAGDARLVSVEVSARRCSVQTVPNLYGHANHMIHPGCEAEAQIVTDSSRERQARVNALLPALSRPLQPAALLDVLQDRAPSGLPIYRDDPLDPDGENTLATALFEIGGAGVSMKVYRQGQRAFDAFIARAACGQTGA, MGSDKIHHHHHHMVGENMDIFVSDYEKQYKEILTGFDPTTFSETWVENQQWQLDFYVEKTRNNQDVFDLLNHESSVYLDGQEFVVKQLKRGAVGKIVYSEVTATHIYFTMQDDYQYNAISGSKSAKDCLTHIFAADKQGFSFELIDKNKVLENITQENFGNGNLLKLVQEVLEDYKLVMLADNKRLTFIPSEDYGEHTENEIRYNKHTNEVDFDIDTLSLRTQIKGYGKVDSNGNNYFPPVTFTSPESAKWGVRIQEPLSDERYTTSSSMLRRLKLELQDYPATTGNISLKLKYECGKGDYVMFVYEPLGLLYEVQIVAYKKYIFTNKPPELTLSNNKKTMVSIMVQLAKAIKRGAK, MGSDKIHHHHHHMVGMLERTIAGLQRNNMAGYFVHNRQELMALLSGLMEKGQTVGCGDSVTLEELGVFDFLRKGDYIFYDKYVPGLTSEDKRRLYIQNFAADTFITGTNAVTTDGKLFNIDGNGSRVAPMIYGPRQVIVVVGTNKITEDVESAIQRVRQIAAPMDAKRLKKETPCTKLNRCVDCRHPQRICNDFVLITGQFVKDRIKVIIIDMEIGY, MGSDKIHHHHHHMVIIHSKDLVNWTIKGHVVSDLRQISEEMNWTRMNRYGRGIWAGAIRYYQGKFYVYFGTPDEGYFMSTATDPAGPWEPLHCVKAEKGWDDCCPFFDDDGQLYFVGTHFADKYKTYLYRMTPDGKTLIENSKILINEGYGREASKLYKINGTYYHFFSEVKNGGRYIMMQRSSSITGPYLERKQLSHVQREYNEPNQGGLVEGPDRKWYFFTHHGTGDWAGRIASLLPVYWVDGWPIIGEVGQDGIGTMVWQAAKPSNEYPVRTPQSSDDFSKSVLSPQWEWNYQPRDEMWSLTERPGNLRLKAFRPLVTDNLLKAGNTLTQRCFRTNKNEVIVKMNIEGMVDGQKAGLCHYSKSYAMVGVRQSGKDRNLEFQTNKEKITGPAIKGNKVWIKSVWGLDGKSQFSYSTDGRKFTPFGEVYQLEWGYYRGSRIGIYCFNNIADAGYIDVDEFIYLY, MGSDKIHHHHHHMVILHIIAGLEKGGAESTLKRLCLNGTEHEHVVVSLSTLGSVGLELQKAGVKVYCLDIRPSITSVAAIFRLYKIIKLRKPSVVQTWMYHADLVGGIVSRVAGVKKIYWGVHHTYLIKGQSKRVTIFISRINSVLSHFIPTKIVYCANSARVAQEKIGYNKKSGIVIFNGYDTSKFKRDLKLRSVYREKLGLKETDFVIGHVGRYDSLKDYPNLINAIRKVKYKVGGLKVILVGAGLSKDNRELLNVISESTLISKFHLLGPSDDIPGIMNAIDVFVLSSSSEAFPNVLNEAMACGTPCVSTDVGDASAIVGMTGWLSAAGDSSALAEKIYAAYKEFSENKANWEERQYSCRERIVTNFSSQSMVSNYTLLWQS, MGSDKIHHHHHHMVKTNVTIMRGGTSKGVFFHESAMPNNKNEWEPFLLDVMGSPDKRQIDGLGGGNSLTSKVAIIKKAYTSDIDVHYTFGQVSISEEKVDFKGNCGNISAAVGPFAIEEGLVKAKEPMTAVRILNTNTNKMIIAEVEVEDGQVKYDGDVTISGVPGSGSPIYLNFHDAAGSVTGHLLPTGNSSEFLDTSQGQIEVSIIDYANPLVFVEASSIGLDGTELAEEFTDLQLAQFEELRSIAAEKCGFASRFSATKLSPAVPKLAIVAKPEKYKDSTGAWHSSVEMDLHIRMMSMQKSHQALAVTGAICTTRALSVEGAIPARIAKNHSTKVRLAHSSGIIETMVEPTGIKIVRTARRIMDGTVYTHGDYQMM, MGSDKIHHHHHHMVMERGEIIGIVLQKSEANEMQGLIRADEEISVGQLLLVDDSEKLSLVRVENYEFLNEFFDEKGEIAKSILKEPSIYEILDMNTIIKATLHLIKKYDHNTTPKPGSFVRRLPEIKSEKELLSFYGIKNKKGLIEYGALAGSEIPLLLDLNAITMHMGVFGETGSGKSYNMRYLIKLLSNIKIGDKITALPMIVIDANGDYIDLASTNLDIVSKGRGWIKRYILKDPKEQNDIKLTIDLSIFTPRELSEFIMSLKYGEASYNTLQLNFLEQVLANHESKEYNTLLGSAIGIETLRNEILTMAQNKDIGITTGTARGIASALEIFKNKVISRLQLVNSSASLTENTLEVIWRNRGLAIIDFSADGSPGVDVLTKQLIVSYITRLIFNYLTRSKYNGNQRFLGFVIEEAQNYIPSIDYPVNANLTKDVLVTLATQGRKFGASLILVSQRPAFIDKYVLSMINTFFFHRIYHEDVRYVMSASGGLPESLTKNLTSLDTGYVIVSGLMSIMKSPALVRIPWDPRLGSYAGNVERIDLILSEG
